Test results as given in PMC5431883, “Enhancing Specific Disruption of Intracellular Protein Complexes by Hydrocarbon Stapled Peptides Using Lipid Based Delivery” (Scientific Reports, 2017).
Positions of bridges follow the written chain, without caps; N, C: chain ends. Non-standard residues stand in square brackets, D forms with d. R8 = C=CCCCCCC[C@@](C)(N)C(=O)O; S5 = C=CCCC[C@](C)(N)C(=O)O; Ahx = NCCCCCC(=O)O

Experiments:
Mdm2 joined to HaloTag [1] = molecular target: T1, Mdm2 joined to HaloTag (UniProt Q00987 1-491, HaloTag covalently labelled with a cell permeable fluorogenic substrate); test: FRET or BRET; nanoBRET in live HEK293 cells transfected with p53-nanoLUC and Mdm2-HaloTag; stapled peptide titrated (10 points), 10% FCS, signal after 4 hours; conditions: one partner purified
T1 construct: Mdm2 of the p53:Mdm2 NanoBRET System (Promega); Construct of a bought kit (Promega); source: HEK293, transiently transfected, in live cells

Mdm2 (1-125) [2] = molecular target: T2, Mdm2 (1-125) (UniProt Q00987 1-125); test: fluorescence polarisation; competitive fluorescence anisotropy (FA) assay on Mdm2 (1-125); Kd determined from the competition; details in the supplementary information; conditions: both partners purified
T2 construct: Mdm2, residues 1-125; source: expressed and purified (host and procedure in the supplementary information)

Mdm2 (1-125) [3] = molecular target: T2, Mdm2 (1-125); test: cell-based or functional assay
Mdm2 joined to HaloTag [4] = molecular target: T1, Mdm2 joined to HaloTag; test: FRET or BRET; nanoBRET in live HEK293 cells transfected with p53-nanoLUC and Mdm2-HaloTag; stapled peptide titrated (10 points), 0% FCS, signal after 4 hours; conditions: one partner purified

T2 sequence (Q00987 1-125): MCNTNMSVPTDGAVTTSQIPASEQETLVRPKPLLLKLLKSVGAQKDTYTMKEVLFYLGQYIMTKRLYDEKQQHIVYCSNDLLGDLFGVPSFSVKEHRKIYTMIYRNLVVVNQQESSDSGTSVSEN
T1 sequence (Q00987 whole entry): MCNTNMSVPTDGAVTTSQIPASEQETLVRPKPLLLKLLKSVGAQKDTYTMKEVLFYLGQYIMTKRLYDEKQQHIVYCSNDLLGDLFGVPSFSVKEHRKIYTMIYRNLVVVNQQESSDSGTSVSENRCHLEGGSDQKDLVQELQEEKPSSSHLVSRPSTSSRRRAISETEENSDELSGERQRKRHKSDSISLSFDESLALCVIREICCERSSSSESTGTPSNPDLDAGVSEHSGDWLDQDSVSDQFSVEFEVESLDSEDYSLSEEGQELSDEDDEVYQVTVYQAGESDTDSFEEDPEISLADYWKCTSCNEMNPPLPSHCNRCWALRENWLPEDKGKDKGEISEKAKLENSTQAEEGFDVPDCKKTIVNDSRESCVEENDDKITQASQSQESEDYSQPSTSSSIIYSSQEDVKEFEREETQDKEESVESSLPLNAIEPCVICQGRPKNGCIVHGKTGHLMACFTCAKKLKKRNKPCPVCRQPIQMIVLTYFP

- IC50 (Mdm2 joined to HaloTag [1]): 17.5 ± 1.3 µM
- Kd (Mdm2 (1-125) [2]): 24.4 ± 2.3 µM
- EC50 of p53 activation, T22 p53 reporter cells (β-galactosidase), 0% FCS; blocks Mdm2:p53 (Mdm2 (1-125) [3]): 0.8 µM
- EC50 of p53 activation, T22 p53 reporter cells (β-galactosidase), 10% FCS; blocks Mdm2:p53 (Mdm2 (1-125) [3]): 10 µM
- IC50 (Mdm2 joined to HaloTag [4]): 3.9 ± 0.2 µM
Binder: Ac-KK[Ahx]TSF[R8]EYWALL[S5]ENF-NH2 (staple 7-14) [VIP-82]
